Article PMC4726241, “Crystal structure and SUMO binding of Slx1-Slx4 complex” (Scientific Reports, 2016)

Target: T1, Slx1^RING+CT-Slx4^CCD complex (S. pombe, UniProt Q9P7M3 176-271; Q9P6M0 352-419)
T1 construct: Slx4, Schizosaccharomyces pombe, C-terminal conserved domain, residues 352-419; source: E. coli, co-expressed, purified by a procedure similar to that of Slx1^RING-Slx4^CCD; not shown: His6, N-terminal, cleaved
T1 sequence (looked up) 1: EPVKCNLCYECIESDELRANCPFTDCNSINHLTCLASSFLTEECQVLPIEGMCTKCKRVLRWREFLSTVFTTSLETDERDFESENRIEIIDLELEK
T1 sequence (looked up) 2: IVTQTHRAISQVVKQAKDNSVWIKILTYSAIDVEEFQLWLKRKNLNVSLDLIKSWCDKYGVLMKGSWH
Assay: ITC; 2.37 mM Pmt3 injected into 120 μM complex in the cell; 25 °C; 20 mM sodium phosphate pH 6.8, 100 mM NaCl; three repeats
Conditions: both partners purified

B1: mature Pmt3 (S. pombe SUMO), residues 1-111 (natural protein, UniProt O13351 1-111, looked up)
chain: MSESPSANISDADKSAITPTTGDTSQQDVKPSTEHINLKVVGQDNNEVFFKIKKTTEFSKLMKIYCARQGKSMNSLRFLVDGERIRPDQTPAELDMEDGDQIEAVLEQLGG
notes: Pmt3 (SUMO), Schizosaccharomyces pombe, mature form, residues 1-111; Uniformly 15N-labelled for the NMR titrations; source: E. coli, purified by a procedure similar to that of the complex
- Kd: 78.3 ± 9.9 µM
